This is an account of results in patent US20060216339.

Series [1] has as its system recombinant mammalian ERK2 (MAPK p42 protein, bacterial recombinant, already containing phospho-tyrosine-185).
The subject of series [2] is purified recombinant Elk1 protein (Elk1-GST fusion protein) [GST: P08515].

Sequence of purified recombinant Elk1 protein (Elk1-GST fusion protein) [GST: P08515] (P08515 whole entry, looked up, the tested form may be a part): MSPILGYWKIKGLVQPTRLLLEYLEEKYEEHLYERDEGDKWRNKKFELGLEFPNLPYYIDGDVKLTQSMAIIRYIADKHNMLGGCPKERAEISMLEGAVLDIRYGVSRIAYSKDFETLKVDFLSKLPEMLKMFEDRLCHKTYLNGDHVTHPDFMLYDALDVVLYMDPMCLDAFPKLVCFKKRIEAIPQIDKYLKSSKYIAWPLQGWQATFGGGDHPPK

Take “MEK1 (MAP kinase kinase 1)-GST fusion protein, activated by the catalytic subunit of MEKK1”: in series [1], the “ERK2 activity (production of phospho-Elk1)” value is listed as “MEK1, which produces the maximally activated kinase”.
On to “active apMAPK (phospho-apMAPK, dually phosphorylated at the T-E-Y site)”, for which the “phosphorylation of Elk1 at Ser^383 (Western blot with Ab^pElk1)” value in series [2] is on record as “the apPKG-activated ap-MAPK phosphorylated its physiological substrate, Elk1, at the appropriate Ser^383”.
With “ERK2 activated by apPKG (doubly phosphorylated, T183 and Y185)”, the “phosphorylation of Elk1 at Ser^383 (Western blot with Ab^pElk1)” value in series [2] was “ERK2 activity was measured by the phosphorylation of Elk1 at Ser^383”.
